Laboratory results from patent US20160166666A1, “TUMOR ANTIGEN PEPTIDE” (Sumitomo Dainippon Pharma Co., Ltd., priority 2013, published 2016).

Assays:
HLA-A*02:01 on T2 cells = target: T1, HLA-A*02:01 on T2 cells (human, UniProt P04439 25-302 at identity 0.94)); test: MHC class I expression stabilization test on T2 cells as in Example 2, flow cytometry
T1 construct: whole, on cells; Empty MHC class I on the cell surface that is stabilized by an added peptide; the text gives HLA-A*02:01
T1 MHC heavy: not shown

[1] = target: T2, HLA-A*24:02 on T2-A24 cells (human, UniProt P04439-2 25-302 at identity 0.92)); test: MHC class I expression stabilization test on T2-A24 cells as in Example 2, flow cytometry
T2 construct: whole, on cells; Empty MHC class I on the cell surface that is stabilized by an added peptide; the text gives HLA-A*24:02
T2 MHC heavy: not shown

B1: Peptide represented by SEQ ID No: 11, OR7C1 V126I (117-126) (peptide)
peptide: VMAYDRFVAI
notes: Synthetic peptide, Fmoc method
mean fluorescence intensity (MFI) solvent ratio (HLA-A*02:01 on T2 cells): 2.2 ratio to solvent | mean fluorescence intensity (MFI) solvent ratio [1]: 3.8 ratio to solvent
